# In patent US20060134087A1, “ITI-D1 Kunitz domain mutants as hNE inhibitors” (Dyax Corp., priority 1988, published 2006):
# Entries after “also recorded” stand apart in the source; their conditions may differ.
# Legend:
# hNE [1] = target: T1, hNE (Homo sapiens, UniProt P08246); assay: Temperature stability, residual inhibitory activity for hNE; format: physicochemical; parameters: Residual hNE Inhibitory Activity: unit not given here; settings: for Residual hNE Inhibitory Activity: 18 hours, pH 7.0, 1 μM protein
# T1 sequence (P08246 30-267): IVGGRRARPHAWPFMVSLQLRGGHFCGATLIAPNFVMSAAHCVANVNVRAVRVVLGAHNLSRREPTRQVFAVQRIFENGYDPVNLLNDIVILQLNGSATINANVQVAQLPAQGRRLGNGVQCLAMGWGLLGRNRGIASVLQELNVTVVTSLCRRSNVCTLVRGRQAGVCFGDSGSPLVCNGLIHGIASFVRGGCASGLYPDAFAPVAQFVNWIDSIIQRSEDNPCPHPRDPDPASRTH
# Experimental: The stability of EPI-HNE proteins to temperatures in the range 0° C. to 95° C. was assessed by incubating the inhibitors for thirty minutes at various temperatures and determining residual inhibitory activity for hNE. In these experiments, protein concentrations were 1 μM in phosphate buffer at pH=7. As is shown in Table 40, the four inhibitors are quite temperature stable.
# Proteins were incubated at the stated temperature for 18 hours in buffer at pH 7.0. In all cases protein concentrations were 1 μM. At the end of the incubation period, aliquots of the reactions were diluted and residual hNE-inhibition activity determined.
# hNE [2] = target: T1, hNE; assay: pH stability, residual hNE inhibitory activity; format: physicochemical; settings: 37° C., 18 hours; for Percent Residual hNE Inhibitory Activity: 1 μM protein
# Experimental: The stability of the proteins to exposure to pH conditions in the range of pH 1 to pH 10 was assessed by maintaining the inhibitors in buffers of defined pH at 37° C. for 18 hours and determining the residual hNE inhibitory activity in the standard hNE-inhibition assay. Proteins were incubated at a concentration of 1 μM. The buffers shown in Table 4 were formulated as described (STOL90) and used in the pH ranges indicated: […]
# Proteins were incubated at 37° C. for 18 hours in buffers of defined pH (see text). In all cases protein concentrations were 1 μM. At the end of the incubation period, aliquots of the reactions were diluted and residual hNE-inhibition activity determined.
# hNE [3] = target: T1, hNE; assay: Kinetic on-rate of inhibitors reacting with hNE (progressive inhibition); format: biochemical
# Experimental: The kinetic on-rates for the inhibitors reacting with hNE (kon) were determined from measurements of progressive inhibition of substrate hydrolytic activity by hNE following addition of inhibitor. For these experiments, a known concentration of inhibitor was added to a solution of hNE (0.847 nM) and substrate (25 μM) in 2 ml of reaction buffer in a plastic fluorescence cuvette. The change in fluorescence was recorded continuously following addition of the inhibitor. […] The enzymatic rate at selected times following addition of the inhibitor was determined from the slope of the tangent to the fluorescence time course at that time.
# The kinetic constant kon for EPI-HNE-2 reacting with hNE was determined as follows. EPI-HNE-2 at 1.3 nM was added to buffer containing 0.867 nM hNE (I:E=1.5:1) at time 0. Measured percent residual activity was recorded as a function of time after addition of inhibitor. A least-squares fit program was used to obtain the value of kon=4.0×10^6 M^−1s^−1.
# The kinetic off rate, koff, is calculated from the measured values of Ki and kon as: […] The values from such measurements are included in Table 30. The EPI-HNE proteins are small, high affinity, fast acting inhibitors of hNE. B. Specificity.
# hNE [4] = target: T1, hNE; assay: Resistance to oxidative inactivation by Chloramine-T, residual hNE-inhibition activity; format: physicochemical; settings: for Percent Residual hNE-Inhibitory Activity: 20 minutes at RT
# Experimental: At the end of the incubation period, the oxidation reactions were quenched by adding methionine to a final concentration of 4 mM. After a further 10 minute incubation, the quenched reactions were diluted and assayed for residual inhibitor activity in our standard hNE-inhibition assay.
# Inhibitors were incubated in the presence of Chloramine-T at the molar ratios indicated for 20 minutes at RT. Oxidation reactions were quenched by adding methionine to a final concentration of 4 mM. Residual hNE-inhibition activity remaining in the quenched reactions is shown as a percentage of the activity observed with no added oxidant.
# [5] = target: T2, agarose-immobilized hNE beads (Homo sapiens, UniProt P08246); assay: pH fractionation of display phage on agarose-immobilized hNE beads; format: binding; parameters: Fraction of Input recovered at pH7.0: scale not given here
# T2 sequence (P08246 30-267): T1 sequence (P08246 30-267)
# Text: For the purpose of simultaneously assessing the affinity of a large number of different BPTI and ITI-D1 muteins, DNA sequences encoding the BPTI or ITI-D1 was incorporated into the genome of the bacteriophage M13. […] Alterations in the KuDom amino acid sequence were introduced. Each pure population of phage displaying a particular KuDom was characterized with regard to its interactions with immobilized hNE or hCG. Based on comparison to the pH elution profiles of phage displaying other KuDoms of known affinities for the particular protease, mutant KuDoms having high affinity for the target proteases were identified. Subsequently, the sequences of these mutant KuDoms were determined (typically by sequencing the corresponding DNA sequence).
# To test if phage displaying the ITI-D1::III fusion protein interact strongly with the proteases human neutrophil elastase (hNE), aliquots of display phage were incubated with agarose-immobilized hNE beads (“hNE beads”). The beads were washed and bound phage eluted by pH fractionation as described in U.S. Pat. No. 5,223,409. The pHs used in the step gradient were 7.0, 6.0, 5.5, 5.0, 4.5, 4.0, 3.5, 3.0, 2.5, and 2.0. Following elution and neutralization, the various input, wash, and pH elution fractions were titered. Phage displaying ITI-D1 were compared to phage that display EpiNE-7.
# To test if ITI-D1E7-display phage bind hNE beads, pH elution profiles were measured. Aliquots of EpiNE-7, MA-ITI-D1, and MA-ITI-D1E7 display phage were incubated with hNE beads for three hours at room temperature (RT). The beads were washed and phage were eluted as described in U.S. Pat. No. 5,223,409, except that only three pH elutions were performed. […] The pH elution profile of EpiNE-7 display phage is as described. MA-ITI-D1E7 phage show a broad elution maximum around pH 5. The total fraction of MA-ITI-D1E7 phage obtained on pH elution from hNE beads was about 40-fold less than that obtained using EpiNE-7 display phage.
# We characterized the binding properties to hNE-beads of MA-BITI and MA-BITI-E7 display phage using the extended pH fractionation procedure described in U.S. Pat. No. 5,223,409.
# The binding capacity of hNE-beads for display phage varies among preparations of beads and with age for each individual preparation of beads. Thus, it is difficult to directly compare absolute yields of phage from elutions performed at different times. For example, the fraction of MA-EpiNE7 display phage recovered from hNE-beads varies two-fold among the experiments shown in Tables 14, 16, and 17. However, the shapes of the pH elution profiles are similar. It is possible to correct somewhat for variations in binding capacity of hNE-beads by normalizing display phage yields to the total yield of MA-EpiNE7 phage recovered from the beads in a concurrent elution. When the data shown in Tables 14, 16, and 17 are so normalized, the recoveries of display phage, relative to recovered MA-EpiNE7, are shown in Table 3.
# ITI-D1 derivative BITI-E7-1222 is BITI-E7 with the alteration A11T. ITI-D1 derivative BITI-E7-141 is BITI-E7 with the alterations E31Q and Q34V; phage that display the presence of these proteins are MA-BITI-E7-1222 and MA-BITI-E7-141. We determined the binding properties to hNE-beads of MA-BITI-E7-1222 and MA-BITI-E7-141 display phage using the extended pH fractionation protocol described previously. The results are in Tables 18 (for MA-BITI-E7 and MA-BITI-E7-1222) and 19 (for MA-EpiNE7 and MA-BITI-E7-141). The pH elution profiles for the MA-BITI-E7 and MA-BITI-E7-1222 phage are almost identical.
# Total pfu applied to the beads are in column two. The fractions of this input pfu recovered in each pH fraction of the abbreviated pH elution protocol (pH 7.0, pH 3.5, and pH 2.0) are in the next three columns. […]
# [6] = AE abbreviated pH elution protocol
substance,measurement,setting,value
EPI-HNE-4: EPI-HNE-3 with substitution A3E; SEQ ID NO 027 (EACNLPIVRGPCIAFFPRWAFDAVKGKCVLFPYGGCQGNGNKFYSEKECREYCGVP; Epi-HNE-4),Residual hNE Inhibitory Activity,hNE [1]; Temperature 0 ° C.,100
same,Residual hNE Inhibitory Activity,hNE [1]; Temperature 23 ° C.,103
same,Residual hNE Inhibitory Activity,hNE [1]; Temperature 37 ° C.,98
same,Residual hNE Inhibitory Activity,hNE [1]; Temperature 55 ° C.,98
same,Residual hNE Inhibitory Activity,hNE [1]; Temperature 69 ° C.,82
same,Residual hNE Inhibitory Activity,hNE [1]; Temperature 85 ° C.,63
same,Residual hNE Inhibitory Activity,hNE [1]; Temperature 95 ° C.,48
same,temperature below which full inhibitory activity is maintained,"hNE [1]; thirty minutes, 1 μM, phosphate buffer pH=7",below 65 °C
same,pH stability,"hNE [2]; pH 1 to pH 10, 1 μM","stable when incubated at low pH, but showed some loss of activity at high pH; also recorded: retains almost full activity to pH 8.5"
same,Percent Residual hNE Inhibitory Activity,hNE [2]; Incubation pH 1.0,98%
same,Percent Residual hNE Inhibitory Activity,hNE [2]; Incubation pH 2.0,100%
same,Percent Residual hNE Inhibitory Activity,hNE [2]; Incubation pH 3.0,96%
same,Percent Residual hNE Inhibitory Activity,hNE [2]; Incubation pH 4.0,94%
same,Percent Residual hNE Inhibitory Activity,hNE [2]; Incubation pH 5.5,109%
same,Percent Residual hNE Inhibitory Activity,hNE [2]; Incubation pH 6.0,99%
same,Percent Residual hNE Inhibitory Activity,hNE [2]; Incubation pH 6.5,100%
same,Percent Residual hNE Inhibitory Activity,hNE [2]; Incubation pH 7.0,93%
same,Percent Residual hNE Inhibitory Activity,hNE [2]; Incubation pH 7.5,109%
same,Percent Residual hNE Inhibitory Activity,hNE [2]; Incubation pH 8.0,83%
same,Percent Residual hNE Inhibitory Activity,hNE [2]; Incubation pH 8.5,86%
same,Percent Residual hNE Inhibitory Activity,hNE [2]; Incubation pH 9.4,40%
same,Percent Residual hNE Inhibitory Activity,hNE [2]; Incubation pH 10.0,34%
same,kon,hNE [3]; [hNE] = 8.47 × 10^−10 molar,10.6 10^6/M/s
same,koff,hNE [3]; calculated from koff = KD × kon,49. 10^−6/s
same,Percent Residual hNE-Inhibitory Activity,hNE [4]; Molar Ratio CHL-T:Inhibitor 0,100%
same,Percent Residual hNE-Inhibitory Activity,hNE [4]; Molar Ratio CHL-T:Inhibitor 1.0,100%
same,Percent Residual hNE-Inhibitory Activity,hNE [4]; Molar Ratio CHL-T:Inhibitor 3.0,100%
same,Percent Residual hNE-Inhibitory Activity,hNE [4]; Molar Ratio CHL-T:Inhibitor 5.0,100%
same,Percent Residual hNE-Inhibitory Activity,hNE [4]; Molar Ratio CHL-T:Inhibitor 10.,104%
same,Percent Residual hNE-Inhibitory Activity,hNE [4]; Molar Ratio CHL-T:Inhibitor 30.,100%
same,Percent Residual hNE-Inhibitory Activity,hNE [4]; Molar Ratio CHL-T:Inhibitor 50.,100%
same,Percent Residual hNE-Inhibitory Activity,hNE [4]; Molar Ratio CHL-T:Inhibitor .50,100%
same,hNE-inhibition activity after exposure to Chloramine-T,hNE [4]; all molar ratios tested (up to 50:1 for EPI-HNE-3 and EPI-HNE-4),retain essentially complete hNE-inhibition activity
MUTQE: BITI-E7-141 with Q31E; SEQ ID NO 019 (RPDFCQLGYSAGPCVAMFPRYFYNGTSMACETFVYGGCMGNGNNFVTEKDCLQTCRGA; MUTQE),Fraction of Input recovered at pH2.0,[5]; [6],5.3 ×10^−4
same,Fraction of Input recovered at pH3.5,[5]; [6],16. ×10^−4
same,Fraction of Input recovered at pH7.0,[5]; [6],1.2
same,Recovery Total,"[5]; AE, total fraction of input",22.0 ×10^−4
same,Fraction of Input bound,[5]; range of the affinity class,>0.1%
same,pH Elution Maximum,[5]; range of the affinity class,≦4.0 pH
same,effect of change on binding of display phage to hNE-beads,[5]; relative to parental MA-BITI-E7-141,little effect
